Test results taken from patent US20090170750A1 (Novo Nordisk, published 2009).
Bridges are numbered along the chain shown (N, C = ends). Where no end group is shown, it is not given here.

Target: human IGF-1 receptor (human) (UniProt P08069)
Assay: competition with 125I-IGF-1 (SPA)

Molecule | Human IGF-1 receptor binding | Human IGF-1 receptor binding relative to human insulin
single-chain insulin with connecting peptide RGSSGK (SEQ ID NO:114), no PAK number printed (from UniProt P01308 25-53; P01308 90-110) (ligand) |  | 0.5%
single-chain insulin PAK 1709, connecting peptide VGRSSGK (SEQ ID NO:105) (from UniProt P01308 25-53; P01308 90-110) (ligand) |  | 0.5%
single-chain insulin PAK 1766, connecting peptide VGSSSGK (from UniProt P01308 25-53; P01308 90-110) (ligand) |  | 0.05%
single-chain insulin PAK 1687033, connecting peptide VGSYSGK (from UniProt P01308 25-53; P01308 90-110) (ligand) |  | 0.2%
single-chain insulin PAK 1688007, connecting peptide VGYSSGK (from UniProt P01308 25-53; P01308 90-110) (ligand) |  | 0.2%
single-chain insulin B(1-29)-TRLSQGR-A(1-21) (from UniProt P01308 25-53; P01308 90-110) (ligand) | 0.05% | 
single-chain insulin PAK 1687046, connecting peptide VGSMSGK (from UniProt P01308 25-53; P01308 90-110) (ligand) |  | 0.1%
single-chain insulin PAK 1638077, connecting peptide VGSSRGK (from UniProt P01308 25-53; P01308 90-110) (ligand) |  | 0.1%
single-chain insulin PAK 1708, connecting peptide VGSRSGK (from UniProt P01308 25-53; P01308 90-110) (ligand) |  | 0.2%

The next lines start with the values.

Human IGF-1 receptor binding | Human IGF-1 receptor binding relative to human insulin | Molecule
0.1% |  | single-chain insulin B(1-29)-TRSSNGR-A(1-21) (from UniProt P01308 25-53; P01308 90-110) (ligand)
 | 0.1% | single-chain insulin PAK 1688011, connecting peptide VGLSSGK (from UniProt P01308 25-53; P01308 90-110) (ligand)
 | 0.15% | single-chain insulin with connecting peptide VGHSSGK (SEQ ID NO:108), no PAK number printed (from UniProt P01308 25-53; P01308 90-110) (ligand)
 | 0.2% | single-chain insulin PAK 1688028, connecting peptide VGMSSGK (SEQ ID NO:106) (from UniProt P01308 25-53; P01308 90-110) (ligand)

Target: purified recombinant human insulin receptor-exon 11 (human) (UniProt P06213)
Assay: competition with 125I-insulin (SPA)

IR, binding relative to human insulin | Molecule
54% | single-chain insulin with connecting peptide RGSSGK (SEQ ID NO:114), no PAK number printed (from UniProt P01308 25-53; P01308 90-110) (ligand)
90% | single-chain insulin PAK 1740, connecting peptide VGSSSGK [B1G_B3Q_A18Q_A21G] (from UniProt P01308 25-53; P01308 90-110) (ligand)

Molecule | IR, binding relative to human insulin
single-chain insulin PAK 1769040, connecting peptide VVGSSSGK [A18Q_A21G] (from UniProt P01308 25-53; P01308 90-110) (ligand) | 29%

Target: T1, purified recombinant human insulin receptor-exon 11 (human, UniProt P06213-2 28-1370, limits assumed)
T1 construct: also called IR
Assay: competition with 125I-insulin (SPA)
Procedure: A total of 100 μl was then added and a dilution series is made from appropriate samples. To the dilution series was then added 100 μl of reagent mix and the samples were incubated for 16 hours while gently shaken. The phases were the then separated by centrifugation for 1 min and the plates counted in a Topcounter. The binding data were fitted using the nonlinear regression algorithm in the GraphPad Prism 2.01 (GraphPad Software, San Diego, Calif.).

Molecule | IR, binding relative to human insulin
B(1-29)-B27E-B29A-TGLGKGQ-A(1-21)-A18Q Human insulin (PAK1845) (ligand, disulfide 19-56, 42-47, 7-43) FVNQHLCGSHLVEALYLVCGERGFFYEPATGLGKGQGIVEQCCTSICSLYQLEQYCN | 20%
single-chain insulin PAK 1861, connecting peptide VGLGKGPGAGK [A18Q_A21G] (ligand) FVNQHLCGSHLVEALYLVCGERGFFYTPKVGLGKGPGAGKGIVEQCCTSICSLYQLEQYCG | 36%
single-chain insulin PAK 1896, connecting peptide VGLSSGQ [B29A_A18Q_A22K] (ligand, disulfide 19-56, 42-47, 7-43) FVNQHLCGSHLVEALYLVCGERGFFYTPAVGLSSGQGIVEQCCTSICSLYQLEQYCNK | 38%

The next lines start with the values.

IR, binding relative to human insulin | Molecule
71% | B(1-29)-B29A-TGLGKGQ-A(1-21)-A18Q Human insulin (PAK1837) (ligand, disulfide 19-56, 42-47, 7-43) FVNQHLCGSHLVEALYLVCGERGFFYTPATGLGKGQGIVEQCCTSICSLYQLEQYCN
143% | single-chain insulin PAK 1735, connecting peptide VGRSSGK [A21G] (ligand, disulfide 19-56, 42-47, 7-43) FVNQHLCGSHLVEALYLVCGERGFFYTPKVGRSSGKGIVEQCCTSICSLYQLENYCG
60% | single-chain insulin PAK 1873, connecting peptide KGLSSGQ [B29A_A18Q] (ligand, disulfide 19-56, 42-47, 7-43) FVNQHLCGSHLVEALYLVCGERGFFYTPAKGLSSGQGIVEQCCTSICSLYQLEQYCN
